Residue numbers refer to the chain shown, from its start.
How the values were obtained:
[1] = target: T1, Myb10-D (Pcold-Myb10-D fusion) (Triticum aestivum, UniProt C0SPG5 1-265); assay: EMSA
[2] = target: T1, Myb10-D (Pcold-Myb10-D fusion); assay: EMSA; remark: listed apart in the source
[3] = target: T1, Myb10-D (Pcold-Myb10-D fusion); assay: competition
[4] = target: T1, Myb10-D (Pcold-Myb10-D fusion); assay: competition; remark: listed apart in the source
[5] = target: T1, Myb10-D (Pcold-Myb10-D fusion); assay: competition; remark: listed apart in the source

B1: SDR 396500 WT (dsDNA)
DNA 1: CCGGATTGAGGGCCGGAGTAGCTGCAGGTGTGATCTCCCG
DNA 2: CGGGAGATCACACCTGCAGCTACTCCGGCCCTCAATCCGG
B1: no binding [1].

B2: NCED probe2988 (SMRE) (dsDNA)
DNA 1: ACGTAATCTTTGAACTTTTCACCAAATAAACATTTCCACC
DNA 2: GGTGGAAATGTTTATTTGGTGAAAAGTTCAAAGATTACGT
B2: binds [2].

B3: NCED freeprobe2988 (WT competitor) (dsDNA)
DNA 1: B2 DNA 1
DNA 2: B2 DNA 2
B3: binds [3].

B4: AAO 343200 WT (dsDNA)
DNA 1: CACGAAGATTTCCCAGCTATCATCAATAAGACCAGGTCGC
DNA 2: GCGACCTGGTCTTATTGATGATAGCTGGGAAATCTTCGTG
B4: no binding [1].

B5: NCED freeprobe2988mu (mutant competitor) (dsDNA)
DNA 1: ACGTAATCTTTGAACTTTTCGGGGGGAAACATTTCCACC
DNA 2: GGTGGAAATGTTTCCCCCCGAAAAGTTCAAAGATTACGT
B5: no binding [4].

B6: ABA3 269200 WT (dsDNA)
DNA 1: ACATCGTCGTTCATCACCAGCTAGCGAAGCAAACAAGGAG
DNA 2: CTCCTTGTTTGCTTCGCTAGCTGGTGATGAACGACGATGT
B6: binds [2].

B7: ABA3 269200 mu (dsDNA)
DNA 1: B6 DNA 1 with C18G, A19G, C21G, T22G, A23G
DNA 2: B6 DNA 2 with T18C, A19C, G20C, T22C, G23C
B7: no binding [5].
